B1: TRAF3IP2 (parent)
chain: KQGSMNFRFIPVLFPNAKKEHVPT

Variants of: B1
Experiment: protein stability index of a GFP-peptide fusion (GPS, HEK-293T) (PSI 1-6); higher = more stable
Conditions: c terminus: a fixed tail appended
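Also: lentivirally expressed fusions sorted by FACS into six bins by GFP to DsRed ratio, PSI derived from sequencing read proportions per bin multiplied by bin number.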

Protein stability index: each site, then its substitutions
M5: K 2.8; V 1.91; Q 2.65; L 1.97; G 2.43; I 2.01
F9: D 3.99; W 2.31; Q 3.3; L 2.44; E 3.94; H 3.38; T 3.66; K 3.41; S 3.2; Y 2.5; P 3.22; I 2.06; G 3.17; M 2.69; A 3.43; V 2.77; R 2.84; C 2.15; N 3.56
G3: T 2.44; L 1.67; N 2.05; H 2.01; F 3.01; A 1.9; D 2.02; S 1.82; R 1.83; P 1.74; E 2.09; K 1.6; C 2.06; Y 1.33; M 1.75; I 1.77; V 2.06; W 2.25; Q 1.85
P11: K 2.02; T 1.86; I 3.73; D 2.37; V 2.91; Q 1.85; G 2.35; H 2.14; N 1.7; A 2.39; R 2.14; Y 3.97; W 2.25; C 3.83; E 1.45; L 2.75; F 3.53; S 1.36; M 2.98
N6: V 1.93; Q 1.81; S 1.96; F 1.74; Y 2.14; G 1.56; T 1.96; L 1.81; W 1.83; K 1.6; R 1.66; H 1.72; I 2.15; D 1.89; M 1.58; P 2.44; E 2.1; C 1.67; A 1.76
R8: C 2.52; A 1.78; P 2.68; E 3.28; I 2.88; M 1.88; Q 3.08; Y 2.09; V 2.02; F 1.61; G 1.9; H 2.41; D 3.3; T 2.04; W 2.44; K 2.61; L 2.22; S 2.39; N 2.8
I10: G 2.76; C 2.3; F 2.11; S 2.46; P 3.42; A 1.98; L 2.23; T 2.07; Q 1.98; N 2.9; H 1.67; W 1.97; K 2.56; R 2.75; M 2.23; D 3.37; V 1.31; E 3.16; Y 2.29
S4: F 1.5; H 1.68; W 1.41; E 2.57; M 1.81; Y 2.14; G 1.53; A 2.68; Q 2.59; T 2; N 2.26; C 1.73; D 2.4; V 1.87; R 1.48; K 1.74; P 2.98; L 1.2
L13: F 2.04; I 1.75; G 1.93; K 2.06; M 1.77; A 1.66; E 2.88; D 2.62; C 2.07; H 2.38
K1: C 2.01; P 1.88; I 1.63; N 1.94; E 2.7; T 2.32; F 2.23; R 2.31; S 2.16; Y 2.57; W 2.08; G 2.19; D 2.02; H 2.17; V 1.95; Q 1.88; L 1.51; A 2.02; M 1.94

— the supplement of paper PMC10567573
